Measured values reported in the Human Domainome abundance scans (Beltran et al. 2025).
± gives the uncertainty stated by the source.

B1: Homeobox protein cut-like 1, residues 548 to 629; numbered along this chain, P39880 (parent)
chain: GEEMDTAEIARQVKEQLIKHNIGQRIFGHYVLGLSQGSVSEILARPKPWNKLTVRGKEPFHKMKQFLSDEQNILALRSIQGR

Variants of: B1
Test: abundance fitness (aPCA) (normalised: wild type 0, dead -1); higher = more abundant; growth selection in yeast, the domain comes from the species named
Details: Homo sapiens

Variant | abundance fitness
GEEMDTAEIARQVKEQLIKHNIGQRIFGHYVLGLSQGSVSEILARPKPWNKLTVRGKEPFHKMKQFLSDEQNILALRSIQLR [G81L] | -0.097 ± 0.042
GEEMDTAEIARQVKEQLIKHNIGQRIFGHYVLGLSQGSVSEILARPKPWNKLTVRGKEPFHKMKQFLSDEQNILALRSIQFR [G81F] | -0.138 ± 0.059
GEEMDTANIARQVKEQLIKHNIGQRIFGHYVLGLSQGSVSEILARPKPWNKLTVRGKEPFHKMKQFLSDEQNILALRSIQGR [E8N] | -0.211 ± 0.056
GEEMDTAEIARQVKEQLIKHNIGQRIFGHYVLGLSQGSVSEILARPAPWNKLTVRGKEPFHKMKQFLSDEQNILALRSIQGR [K47A] | -0.116 ± 0.028
GEEMDTAEIARQVKEQLIKHNIGQRIFGHYVLGLSQGSVSEILARPSPWNKLTVRGKEPFHKMKQFLSDEQNILALRSIQGR [K47S] | -0.126 ± 0.034
GEEMDTAEIARQVKEQLIKHNIGQRIFGHYVLGLSQGSVSEILARPKPWNKLTVRGKEPFHKMKQFLSDEQNILILRSIQGR [A75I] | -0.146 ± 0.059
GEEMDTAEIARQVKEQLIKHNIGRRIFGHYVLGLSQGSVSEILARPKPWNKLTVRGKEPFHKMKQFLSDEQNILALRSIQGR [Q24R] | -0.159 ± 0.024
GEEMDTAEIARQVKEQLIKHNIGDRIFGHYVLGLSQGSVSEILARPKPWNKLTVRGKEPFHKMKQFLSDEQNILALRSIQGR [Q24D] | -0.091 ± 0.079
GEEMDTAEIARQVKEQLIFHNIGQRIFGHYVLGLSQGSVSEILARPKPWNKLTVRGKEPFHKMKQFLSDEQNILALRSIQGR [K19F] | -0.187 ± 0.087
GEEMDTAEIARQVKEQLIQHNIGQRIFGHYVLGLSQGSVSEILARPKPWNKLTVRGKEPFHKMKQFLSDEQNILALRSIQGR [K19Q] | -0.18 ± 0.04
GEEMDTAEIARQVKEQLIKHNIGQRIFGHYVLGLSQGSVSEILARPKPWNKLTVRGKEPFHKMKQFLSDEQNILALRFIQGR [S78F] | -0.188 ± 0.055
GEEMDTAEIARQVKEQLIKHNIGQRIFIHYVLGLSQGSVSEILARPKPWNKLTVRGKEPFHKMKQFLSDEQNILALRSIQGR [G28I] | -0.233 ± 0.095
GEEMDTAEIARQVKEQLIKHNIGQRIFTHYVLGLSQGSVSEILARPKPWNKLTVRGKEPFHKMKQFLSDEQNILALRSIQGR [G28T] | -0.47 ± 0.048
GEEMDTAEIARQVKEQLIKHNIGQRIFGHYVLGLSQGSVSEILARPKPWNKLTSRGKEPFHKMKQFLSDEQNILALRSIQGR [V54S] | -0.033 ± 0.035
GEEMDTAEIARQDKEQLIKHNIGQRIFGHYVLGLSQGSVSEILARPKPWNKLTVRGKEPFHKMKQFLSDEQNILALRSIQGR [V13D] | -0.486 ± 0.066
GEEMDTAEIARQVKEQLIKHNIGQRIFGHYVLGLSQGSVSEILARPKPWNWLTVRGKEPFHKMKQFLSDEQNILALRSIQGR [K51W] | -0.338 ± 0.079
GEEMDCAEIARQVKEQLIKHNIGQRIFGHYVLGLSQGSVSEILARPKPWNKLTVRGKEPFHKMKQFLSDEQNILALRSIQGR [T6C] | -0.66 ± 0.064

Variant | abundance fitness
YEEMDTAEIARQVKEQLIKHNIGQRIFGHYVLGLSQGSVSEILARPKPWNKLTVRGKEPFHKMKQFLSDEQNILALRSIQGR [G1Y] | 0.075 ± 0.18
GEEMDTAEIARQVKEQLIKHNIGQRIFGHYVLGLSQGSVSTILARPKPWNKLTVRGKEPFHKMKQFLSDEQNILALRSIQGR [E41T] | -0.243 ± 0.039
GEEMDTAEIARQVKEQLIKHNIGQRIFGHYVLGLSQGSVSNILARPKPWNKLTVRGKEPFHKMKQFLSDEQNILALRSIQGR [E41N] | -0.206 ± 0.059
GEEMDTAEPARQVKEQLIKHNIGQRIFGHYVLGLSQGSVSEILARPKPWNKLTVRGKEPFHKMKQFLSDEQNILALRSIQGR [I9P] | -0.605 ± 0.056
GEEMDTAEQARQVKEQLIKHNIGQRIFGHYVLGLSQGSVSEILARPKPWNKLTVRGKEPFHKMKQFLSDEQNILALRSIQGR [I9Q] | -0.583 ± 0.054
GEEMDTAEMARQVKEQLIKHNIGQRIFGHYVLGLSQGSVSEILARPKPWNKLTVRGKEPFHKMKQFLSDEQNILALRSIQGR [I9M] | -0.292 ± 0.041
GEEMDTAEIARQVKEQLIKHNIGQRIFGHYVLGLSQGSVSEIWARPKPWNKLTVRGKEPFHKMKQFLSDEQNILALRSIQGR [L43W] | -0.743 ± 0.057
GEEMDTAEIARQVKEQLIKHNIGQRIFGHYVLGLSQGSVSEIEARPKPWNKLTVRGKEPFHKMKQFLSDEQNILALRSIQGR [L43E] | -0.89 ± 0.062
GEEMDTAEIARQVKEQLIKHNIGQRIFGHYVLGLSQYSVSEILARPKPWNKLTVRGKEPFHKMKQFLSDEQNILALRSIQGR [G37Y] | -0.034 ± 0.057
GEEMDTAEIAHQVKEQLIKHNIGQRIFGHYVLGLSQGSVSEILARPKPWNKLTVRGKEPFHKMKQFLSDEQNILALRSIQGR [R11H] | -0.102 ± 0.071
GEEMDTAEIARQVKEQLIKHNIGQRIFGHYVLGLSQGSVSEILARPKPWNKLIVRGKEPFHKMKQFLSDEQNILALRSIQGR [T53I] | -0.521 ± 0.069
GEEMDTAEIARQVKEQLIKHNIGQRIFGHYVLGLSQGSVHEILARPKPWNKLTVRGKEPFHKMKQFLSDEQNILALRSIQGR [S40H] | 0.123 ± 0.052
GEEMDTAEIARQVKEQLIKHNIGQRIFGHYVLGLSQGSVDEILARPKPWNKLTVRGKEPFHKMKQFLSDEQNILALRSIQGR [S40D] | 0.078 ± 0.039
GEEMDTAEIARQVKEQLIKHNIGQRIFGHYVLGLSQGSVLEILARPKPWNKLTVRGKEPFHKMKQFLSDEQNILALRSIQGR [S40L] | -0.101 ± 0.031
GEEMDTAEIARQVKEQLIKHNIGQRIFGHYVLGLSQGSVQEILARPKPWNKLTVRGKEPFHKMKQFLSDEQNILALRSIQGR [S40Q] | 0.017 ± 0.038
GEEMDTAEIARQVKEQLIKHNIGQRIFGHYVLGLSQGSVSEILARPKPWNKLTVRGGEPFHKMKQFLSDEQNILALRSIQGR [K57G] | -0.525 ± 0.028
